Key:
[1] = test system: mice fed a high-fat, high-cholesterol, and cholate (HF/HC/BS) diet; test: 4B9 in mice fed HF/HC/BS diet, 14 days (Example 1, FIG. 2); type: in vivo, mouse
Description: (§1) All data are presented as mean±SEM.
We further investigated whether 4B9 was able to completely simulate the improvement of Asgr1 deletion on high-fat, high-cholesterol conditions.

[2] = test system: mice fed a high-fat, high-cholesterol, and cholate (HF/HC/BS) diet; test: 4B9 and Ezetimibe, alone or combined, in mice fed HF/HC/BS diet (Example 3, FIG. 4); type: in vivo, mouse
Method: as §1
We then devised an experiment as in FIG. 4 to verify the hypothesis. Mice were randomly divided into 8 groups according to the genotype (n=6) and fed an HF/HC/BS diet. They were intragastrically administered with EZ at 10 mg/kg per day and were intraperitoneally injected with 4B9 at 10 mg/kg every other day. The mice were sacrificed on day 7 to collect their tissues.

LXRα [3] = test: Western blotting of LXRα in primary hepatocytes incubated with monoclonal neutralizing antibodies; type: cell-based, mouse; conditions: primary hepatocytes of wild-type C57B/L6 mice, various concentrations, 72 hours, Western blotting (FIG. 1d)
LXRα [4] = test: Western blotting of LXRα in Huh7 cells incubated with purified neutralizing antibody; type: cell-based, human; conditions: 72 hours, Western blotting (FIG. 1c)
Description: (§2) (a) Steps for preparing ASGR1 monoclonal neutralizing antibody. Purified ASGR1 protein is used as the antigen to immunize rabbits, and after the first round of screening, four B-cell monoclonal antibodies are selected as candidates. The coding region of the variable region of the antibody is then sequenced and cloned into an antibody expression vector, which is transfected into mammalian cells. The efficiency of transfection is confirmed by Western blotting and real-time quantitative PCR. Finally, the rabbit-derived Fc fragment is replaced with a murine Fc fragment. The neutralizing antibody 4B9 is selected for large-scale production and used in subsequent experiments. (b) ASGR1 protein purified from HEK293T cells is stained with Coomassie Brilliant Blue. (c) Huh7 cells are incubated with purified neutralizing antibody for 72 hours, followed by Western blotting analysis of the protein expression of LXRα. (d) Primary hepatocytes are isolated from 8-week-old wild-type C57B/L6 mice. […] The primary hepatocytes are incubated with ASGR1 neutralizing antibody 4B9 for 72 hours, after which cells are collected, total RNA is extracted from the cells, and target genes of LXR are analyzed by real-time quantitative PCR. […]

[5] = test system: mice fed a high-fat, high-cholesterol, and cholate (HF/HC/BS) diet; test: 4B9 and atorvastatin, alone or combined, in mice fed HF/HC/BS diet, 14 days (Example 2, FIG. 3)
Method: 8-week-old Asgr1 knockout mice and wild-type littermates are randomly divided into 8 groups as shown in the figure according to the genotype, with 6 mice per group. The mice are given free access to water and fed a high-fat, high-cholesterol, and cholate (HF/HC/BS) diet (60% fat, 1.25% cholesterol, and 0.5% cholate). […] After 14 days, the mice are fasted for 4 hours before being sacrificed. All data are presented as mean±SEM. Statistical significance is calculated using an unpaired two-tailed Student's t-test. *p<0.05, **p<0.01, ***p<0.001. (a) Western blotting analysis of liver samples; (b) total cholesterol in serum; (c) triglyceride in serum; (d) total cholesterol in liver; (e) triglyceride in liver; (f) concentration of cholesterol in bile; (g) total cholesterol in bile; (h) concentration of bile acid in bile; (i) total bile acid in bile; (j) total cholesterol in feces; (k) body weight; (l) daily food intake; (m) ratio of liver weight to body weight; (n) blood glucose; (o) alanine transaminase in serum; (p) aspartate transaminase in serum; (q-r) real-time quantitative PCR analysis of genes related to cholesterol efflux, cholesterol synthesis and absorption, lipid synthesis, and bile acid synthesis in the liver of mice, and genes in other pathways, with cyclophilin as an internal reference; (s) hematoxylin-eosin staining of liver sections; (t) oil red O staining of liver sections.
In the experiment, wild-type littermates were used as a control. All mice were housed in an SPF (specific pathogen-free) facility and kept on a 12-hour light/12-hour dark cycle. 8-week-old male or female mice were fed a high-fat, high-cholesterol, and cholate diet (Research Diets, D12109C) as required by the experimental protocols. For treatments involving antibody neutralization or the combination of antibodies with statins or Ezetimibe, the mice were intraperitoneally injected with antibodies or intragastrically administered with drugs at specified doses. All animals were fasted for 4 hours before being sacrificed.
The collected cells or tissues were lysed in RIPA lysis buffer supplemented with protease and phosphatase inhibitors. The RIPA lysis buffer contained 50 mM Tris-HCl (pH=8.0), 150 mM NaCl, 2 mM MgCl2, 1.5% NP-40, 0.1% SDS, and 0.5% sodium deoxycholate. The protease inhibitor contained 10 μM MG-132, 10 μg/mL leupeptin, 1 mM PMSF, 5 μg/mL pepstatin, 25 μg/mL ALLN, and 1 mM DTT. The protein concentration of the lysate was determined using a BCA method (Thermo Fisher Scientific). The protein samples were incubated with membrane solubilization buffer (62.5 mM Tris-HCl (pH=6.8), 15% SDS, 8 M urea, 10% glycerol, and 100 mM DTT) and 4× loading buffer (150 mM Tris-HCl (pH=6.8), 12% SDS, 30% glycerol, 6% β-mercaptoethanol, and 0.02% bromophenol blue) at 37° C. for 30 minutes. The protein samples were separated by SDS-PAGE and transferred to a PVDF membrane, which was blocked in TBST, i.e., TBS containing 0.075% Tween 20 and 5% skim milk (3% BSA for phosphorylation experiments) for 1 hour. The membrane was incubated overnight at 4° C. with a specified primary antibody, and washed three times with TBST. Finally, Pierce ECL Plus Western blotting substrate (Thermo Fisher Scientific) was used for detection.
Blood was collected from the orbital sinus to obtain serum for the measurement of total cholesterol and triglyceride.

target genes of LXR = test: Real-time quantitative PCR of target genes of LXR in primary hepatocytes incubated with 4B9; type: cell-based; conditions: primary mouse hepatocytes, 72 hours, real-time quantitative PCR (FIG. 1e)
Description: as §2

[6] = wild-type mice, HF/HC/BS diet, 4B9 10 mg/kg/day i.p. every other day, 14 days, Western blotting (FIG. 2a)
[7] = sacrificed on day 7, 4B9 10 mg/kg i.p. every other day, EZ 10 mg/kg per day intragastric (FIGS. 4a, 4p-q)

B1: 4B9: ASGR1 monoclonal neutralizing antibody from immunized rabbits, rabbit Fc replaced with mouse Fc; VL SEQ ID NO: 28, VH SEQ ID NO: 29 (antibody, listed as Oryctolagus cuniculus, V domains shown)
VH: QSLEESGGDLVKPGATMTLTCKASGFSFSGSLWICWVRQAPGKGLEWIACIYVGSSGSTYYASWAKGRFTISTTSSTTVTLQMTSLTAADTATYFCARRYTDAYGGYPAGSFVFKLWGPGTLVTVSS
VL: QVLTQTPSPVSAAVGGTVTINCQASQSVYNNKNLGWYQQKPGQPPKLLIYYASDLASGVPSRFKGSGSGKQFTLTISDVQCDDAATYYCQGEFSCSSADCCAFGGGTEVVVK
modifications: mouse Fc
all parameters in Asgr1 knockout mice with or without injection of 4B9 ([1]; Asgr1 knockout mice, HF/HC/BS diet, 4B9 10 mg/kg/day i.p. every other day, 14 days (FIG. 2a)): remained unchanged | real-time quantitative PCR of liver genes (cholesterol efflux, cholesterol synthesis and absorption, lipid synthesis, bile acid metabolism) ([1]; HF/HC/BS diet, 4B9 10 mg/kg/day i.p. every other day, 14 days (FIG. 2b)): consistent with protein-level changes | body weight ([1]; HF/HC/BS diet, 4B9 10 mg/kg/day i.p. every other day, 14 days (FIG. 2n)): no significant changes | daily food intake ([1]; HF/HC/BS diet, 4B9 10 mg/kg/day i.p. every other day, 14 days (FIG. 2o)): no significant changes | ratio of liver weight to body weight ([1]; HF/HC/BS diet, 4B9 10 mg/kg/day i.p. every other day, 14 days (FIG. 2p)): no significant changes | blood glucose ([1]; HF/HC/BS diet, 4B9 10 mg/kg/day i.p. every other day, 14 days (FIG. 2q)): no significant changes | ALT (alanine transaminase in serum) ([1]; HF/HC/BS diet, 4B9 10 mg/kg/day i.p. every other day, 14 days (FIG. 2r)): no significant changes | AST (aspartate transaminase in serum) ([1]; HF/HC/BS diet, 4B9 10 mg/kg/day i.p. every other day, 14 days (FIG. 2s)): no significant changes | total cholesterol in serum ([1]; HF/HC/BS diet, 4B9 10 mg/kg/day i.p. every other day, 14 days, vs control group (FIG. 2c)): significant decrease | total cholesterol in liver ([1]; HF/HC/BS diet, 4B9 10 mg/kg/day i.p. every other day, 14 days, vs control group (FIG. 2e)): significant decrease | triglyceride in liver ([1]; HF/HC/BS diet, 4B9 10 mg/kg/day i.p. every other day, 14 days, vs control group (FIG. 2f)): significant decrease | total amount of total cholesterol in bile ([1]; HF/HC/BS diet, 4B9 10 mg/kg/day i.p. every other day, 14 days, vs control group (FIG. 2i)): significant increase | total cholesterol in feces ([1]; HF/HC/BS diet, 4B9 10 mg/kg/day i.p. every other day, 14 days, vs control group (FIG. 2k)): significant increase | concentration of total bile acid in bile ([1]; HF/HC/BS diet, 4B9 10 mg/kg/day i.p. every other day, 14 days, vs control group (FIG. 2l)): significant increase | total amount of total bile acid in bile ([1]; HF/HC/BS diet, 4B9 10 mg/kg/day i.p. every other day, 14 days, vs control group (FIG. 2m)): significant increase | concentration of total cholesterol in bile ([1]; HF/HC/BS diet, 4B9 10 mg/kg/day i.p. every other day, 14 days, vs control group (FIG. 2h)): significant increase | triglyceride in serum ([1]; HF/HC/BS diet, 4B9 10 mg/kg/day i.p. every other day, 14 days, vs control group (FIG. 2d)): significant decrease | volume of gallbladder ([1]; HF/HC/BS diet, 4B9 10 mg/kg/day i.p. every other day, 14 days, vs control group (FIGS. 2g, j)): significant increase | overall lipid-lowering effect ([1]; summary of Example 1, high-fat, high-cholesterol diet): very significant lipid-lowering effect | BARD1 in liver [1, 6]: significantly reduced | LDLR in liver [1, 6]: remained unchanged | cholesterol efflux-related proteins (LXR, ABCG8, ABCA1, CYP7A1) in liver [1, 6]: significantly increased | lipid synthesis-related proteins SREBP1 and FASN in liver [1, 6]: significantly reduced | p-ACC in liver [1, 6]: significantly up-regulated | body weight ([2]; 8 groups of mice, sacrificed on day 7, 4B9 10 mg/kg i.p. every other day, EZ 10 mg/kg per day intragastric (FIG. 4j)): No significant differences | daily food intake ([2]; 8 groups of mice, sacrificed on day 7, 4B9 10 mg/kg i.p. every other day, EZ 10 mg/kg per day intragastric (FIG. 4k)): No significant differences | ratio of liver weight to body weight ([2]; 8 groups of mice, sacrificed on day 7, 4B9 10 mg/kg i.p. every other day, EZ 10 mg/kg per day intragastric (FIG. 4l)): No significant differences | blood glucose ([2]; 8 groups of mice, sacrificed on day 7, 4B9 10 mg/kg i.p. every other day, EZ 10 mg/kg per day intragastric (FIG. 4m)): No significant differences | ALT ([2]; 8 groups of mice, sacrificed on day 7, 4B9 10 mg/kg i.p. every other day, EZ 10 mg/kg per day intragastric (FIG. 4n)): No significant differences | AST ([2]; 8 groups of mice, sacrificed on day 7, 4B9 10 mg/kg i.p. every other day, EZ 10 mg/kg per day intragastric (FIG. 4o)): No significant differences | cholesterol synthesis or absorption-related genes and their proteins in liver ([2]; sacrificed on day 7, 4B9 10 mg/kg i.p. every other day (FIGS. 4a, 4p-q)): without affecting the levels | total cholesterol in serum ([2]; sacrificed on day 7, 4B9 10 mg/kg i.p. every other day, EZ 10 mg/kg per day intragastric (FIG. 4b)): effectively reduce | triglyceride in serum ([2]; sacrificed on day 7, 4B9 10 mg/kg i.p. every other day, EZ 10 mg/kg per day intragastric (FIG. 4c)): effectively reduce | triglyceride in liver ([2]; sacrificed on day 7, 4B9 10 mg/kg i.p. every other day, EZ 10 mg/kg per day intragastric (FIG. 4e)): effectively reduce | total amount of total cholesterol in bile ([2]; sacrificed on day 7, 4B9 10 mg/kg i.p. every other day, EZ 10 mg/kg per day intragastric (FIG. 4g)): increased | total amount of total bile acid in bile ([2]; sacrificed on day 7, 4B9 10 mg/kg i.p. every other day, EZ 10 mg/kg per day intragastric (FIG. 4i)): increased | total cholesterol in liver ([2]; sacrificed on day 7, 4B9 10 mg/kg i.p. every other day, EZ 10 mg/kg per day intragastric (FIG. 4d)): effectively reduce | cholesterol efflux-related genes and their proteins (LXRs, ABCG8, ABCA1, CYP7A1) in liver [2, 7]: increased levels | lipid synthesis-related genes and their proteins (SREBP1, FASN) in liver [2, 7]: inhibited the levels | protein stability of LXRα (LXRα [3]): significantly increase | protein stability of LXRα (LXRα [4]): significantly increase | cholesterol synthesis or absorption-related genes and their proteins in liver ([5]; 4B9 10 mg/kg/day i.p. every other day (FIGS. 3a, 3q-r)): without affecting the levels | total cholesterol in serum ([5]; 4B9 10 mg/kg/day i.p. every other day, atorvastatin 30 mg/kg/day intragastric daily (FIG. 3b)): effectively reduce | triglyceride in serum ([5]; 4B9 10 mg/kg/day i.p. every other day, atorvastatin 30 mg/kg/day intragastric daily (FIG. 3c)): effectively reduce | triglyceride in liver ([5]; 4B9 10 mg/kg/day i.p. every other day, atorvastatin 30 mg/kg/day intragastric daily (FIG. 3e)): effectively reduce | total amount of total cholesterol in bile ([5]; 4B9 10 mg/kg/day i.p. every other day, atorvastatin 30 mg/kg/day intragastric daily (FIG. 3g)): increased | total amount of total bile acid in bile ([5]; 4B9 10 mg/kg/day i.p. every other day, atorvastatin 30 mg/kg/day intragastric daily (FIG. 3i)): increased | total cholesterol in feces ([5]; 4B9 10 mg/kg/day i.p. every other day, atorvastatin 30 mg/kg/day intragastric daily (FIG. 3j)): significantly increased | total cholesterol in liver ([5]; 4B9 10 mg/kg/day i.p. every other day, atorvastatin 30 mg/kg/day intragastric daily (FIG. 3d)): effectively reduce | lipid synthesis-related genes and their proteins (SREBP1, FASN) in liver ([5]; 4B9 10 mg/kg/day i.p. every other day, atorvastatin 30 mg/kg/day intragastric daily (FIGS. 3a, 3q-r)): inhibited the levels | cholesterol efflux-related genes (target genes of LXR) (target genes of LXR): significantly up-regulated
